Assay [1] addresses nicotinic acetylcholine receptor (mouse (endogenous in gastrocnemius muscle and in myotubes)) (UniProt P04756). Put plainly: pull-down.
The next assay has as its target nAChR-α-c-myc (UniProt P04756 21-457). The assay is described as follows: co-IP.

2 molecules from PMC2808226 (Molecular Biology of the Cell, 2010) can be followed below.

Chain of nicotinic acetylcholine receptor (mouse (endogenous in gastrocnemius muscle and in myotubes)) (P04756 whole entry, looked up): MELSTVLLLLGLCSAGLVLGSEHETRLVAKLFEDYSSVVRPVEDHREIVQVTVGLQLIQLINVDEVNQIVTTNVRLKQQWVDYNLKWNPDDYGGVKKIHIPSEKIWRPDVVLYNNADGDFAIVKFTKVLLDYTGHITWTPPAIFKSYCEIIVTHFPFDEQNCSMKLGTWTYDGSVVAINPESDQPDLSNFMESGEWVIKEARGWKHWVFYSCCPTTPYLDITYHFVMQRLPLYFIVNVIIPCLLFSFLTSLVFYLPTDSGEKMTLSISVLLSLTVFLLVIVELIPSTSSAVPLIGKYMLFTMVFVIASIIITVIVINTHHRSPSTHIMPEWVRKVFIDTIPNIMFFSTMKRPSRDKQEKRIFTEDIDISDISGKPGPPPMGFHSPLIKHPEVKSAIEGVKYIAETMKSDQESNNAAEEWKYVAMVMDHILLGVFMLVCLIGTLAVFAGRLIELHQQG
Chain of nAChR-α-c-myc (P04756 21-457): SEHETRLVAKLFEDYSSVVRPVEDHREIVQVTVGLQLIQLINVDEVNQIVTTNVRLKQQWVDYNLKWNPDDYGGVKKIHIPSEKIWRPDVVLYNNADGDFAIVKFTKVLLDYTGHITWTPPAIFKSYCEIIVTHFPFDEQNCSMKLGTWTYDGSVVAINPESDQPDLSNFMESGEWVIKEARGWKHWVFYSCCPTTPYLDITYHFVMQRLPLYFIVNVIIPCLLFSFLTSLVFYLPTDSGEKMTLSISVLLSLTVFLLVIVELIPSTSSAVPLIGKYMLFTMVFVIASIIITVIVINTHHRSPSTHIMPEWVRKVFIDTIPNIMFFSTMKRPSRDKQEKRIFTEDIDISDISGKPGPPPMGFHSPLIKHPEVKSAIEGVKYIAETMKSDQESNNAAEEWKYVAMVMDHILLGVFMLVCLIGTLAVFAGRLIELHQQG

As to “caveolin-3 (from UniProt P51637 1-151) (natural protein)”, the percent of caveolin-3 that interacts with the nAChR, after agrin treatment in assay [1] was 5%.

B1: caveolin-3-c-myc (natural protein)
chain: MMTEEHTDLEARIIKDIHCKEIDLVNRDPKNINEDIVKVDFEDVIAEPEGTYSFDGVWKVSFTTFTVSKYWCYRLLSTLLGVPLALLWGFLFACISFCHIWAVVPCIKSYLIEIQCISHIYSLCIRTFCNPLFAALGQVCSNIKVVLRREG
Broadly, the stoichiometry N is a count of units in the complex or per binding partner. B1: the percent of caveolin-3 that interacts with the nAChR, resting conditions in assay [1] worked out at 0.25%. For the same molecule, the “stoichiometry N” value with nAChR-α-c-myc was about 14 caveolin-3 per nAChR.
